Results from patent publication US5496831.

Biological target: E2F-1 (UniProt Q01094)
Test: cell_activity
Conditions: CHO cells, -T antigen; CAT/bGAL 5.2 vs 2.6

Chain of E2F-1 (Q01094 whole entry): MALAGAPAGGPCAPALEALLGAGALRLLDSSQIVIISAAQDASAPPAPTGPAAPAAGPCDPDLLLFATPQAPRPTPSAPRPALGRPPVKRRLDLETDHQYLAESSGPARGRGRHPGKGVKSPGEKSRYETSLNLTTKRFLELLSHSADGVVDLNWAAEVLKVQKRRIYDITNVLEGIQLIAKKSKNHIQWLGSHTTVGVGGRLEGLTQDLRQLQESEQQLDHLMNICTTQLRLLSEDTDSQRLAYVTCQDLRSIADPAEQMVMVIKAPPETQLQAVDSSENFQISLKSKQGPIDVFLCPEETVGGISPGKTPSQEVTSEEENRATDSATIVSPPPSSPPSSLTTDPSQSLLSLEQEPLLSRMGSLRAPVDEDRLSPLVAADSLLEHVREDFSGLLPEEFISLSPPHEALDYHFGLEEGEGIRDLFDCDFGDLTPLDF

Question: Which activity does the source give for HGAPDH promoter (-487 to +21)-CAT here?
Answer: 2 fold
